Reference: patent US20150377889A1, “GALECTIN-3 AS A MARKER FOR PROSTATE CANCER” (Wayne State University, priority 2013, published 2015)

What was measured:
[1] = test system: LNCaP, Du145, and PC3M cell lines; assay: Wound-healing (scratch) assay; assay type: cell-based, human; conditions: 24 hr, compared with the control
Protocol: Wound-healing Assay. A wound-healing assay, the scratch assay, was performed according to the protocol published in Liang, et al. (2007), Nat. Protoc. 2, 329-333. Briefly, in this scratch assay 60-mm dishes were coated with ECM and incubated overnight, unbound ECM was removed and the dishes were blocked with bovine serum albumin. Subconfluent growing cells were resuspended in a tissue culture dish by washing cells with PBS, adding versene containing trypsin, and mixing cells with medium containing serum. Cells were then plated onto the prepared 60-mm dish to create a confluent monolayer, and incubated for 6 hr at 37° C.
The cell lines LNCaP (null galectin-3), DU145 (stable clone with reduced galectin-3 expression), and PC3M were used to examine the effect of full-length galectin-3, galectin-3 1-107, and galectin-3 108-250 on prostate cancer cell motility using the scratch assay. The assay was performed with LNCaP, Du145, and PC3M cultured cell lines stimulated by full-length galectin-3, and fragments galectin-3 1-107 and 108-250. A uniform wound was made in each plate using a 1-μl pipette tip. The wound area was observed immediately, then at 24 hr after creation the cells were counted. Cells were grown under identical conditions.

[2] = test system: co-cultured BAMEC and LNCaP cells; assay: Three-dimensional growth and tube formation assay, BAMEC/LNCaP co-culture on […]; assay type: cell-based, bovine, human
Protocol: Three-dimensional Growth and Tube Formation Assay. To analyze in vitro angiogenesis and interactions between epithelial and endothelial cell formation of tubular networks by co-cultured BAMEC and LNCaP cells, a three-dimensional growth and tube formation assay was performed. Briefly, […]® (10 μl) was added to each chamber of the slide (μ-Slide, ibidi, Martinsried, Germany) and gelled by a 30-min incubation at room temperature, after which 15,000 BAMEC and 5000 LNCaP cells were plated onto the gel in 50 μl of Eagle's minimal essential complete medium. In some chambers, full-length galectin-3 or its fragments were added. After 36 hr, three-dimensional structures were observed under phase contrast microscope and photographed. Images were acquired with an Olympus IX71 microscope supporting a Hamamatsu ORCA-ER video camera. Tube formation image analysis was done using the web-based Image Analysis Win-Tube module of Wimasis online software.
Three-dimensional heterotypic co-cultures of epithelial (LNCaP) and endothelial (BAMEC) cells were performed on […]® to study tube formation in the presence of 10 μg/ml galectin-3 and its fragments. […] FIG. 2B presents a quantitative evaluation of the tube formation assay.

B1: galectin-3 1-107: recombinant fragment 1-107 of human galectin-3 (SEQ ID NO:2), NH2-terminal domain with collagen-like sequence (protein, listed as Homo sapiens)
chain: MADNFSLHDALSGSGNPNPQGWPGAWGNQPAGAGGYPGASYPGAYPGQAPPGAYPGQAPPGAYPGAPGAYPGAPAPGVYPGPPSGPGAYPSSGQPSATGAYPATGPY
[1]
  prostate cancer cell motility: did not show a significant increase in motility
[2]; 10 μg/ml protein added to medium, 36 hr, control 0
  tube formation: loops: 0
[2]; 10 μg/ml protein, BAMEC/LNCaP co-culture
  branching morphogenesis of endothelial cells: failed to do so
